Results published in patent US7981423B2, “Rage fusion proteins” (Transtech Pharma, Inc., priority 2004, dated 2011).

How the values were obtained:
[1] = cited from earlier work
[2] = normal and diabetic rats; retention of immunoreactivity sRAGE; cited from earlier work
amyloid-beta (Abeta) = target: T1, amyloid-beta (Abeta) (Homo sapiens, UniProt P05067); assay: In vitro ligand binding ELISA, immobilized amyloid-beta; conditions: various dilutions of fusion protein; FIG. 7
T1 construct: Amyloid Beta (1-40) from Biosource; purchased Biosource
Procedure: (§1) For example, the RAGE fusion protein may be used in a binding assay to identify potential RAGE ligands. In one example embodiment of such a binding assay, a known RAGE ligand may coated onto a solid substrate (e.g., Maxisorb plates) at a concentration of about 5 micrograms per well, where each well contains a total volume of about 100 microliters (μL). The plates may be incubated at 4° C. overnight to allow the ligand to absorb. Alternatively, shorter incubation periods at higher temperature (e.g., room temperature) may be used. […] The fusion protein bound to the immobilized ligand may be detected in a variety of ways. […] The bound complex may be detected by adding the alkaline phosphatase substrate, para-nitrophenylphosphate (PNPP), and measuring conversion of PNPP to para-nitrophenol (PNP) as an increase in absorbance at 405 nm. […] Binding was detected by the addition of an immunodetection complex containing a monoclonal mouse anti-human IgG1 diluted 1:11,000 to a final assay concentration (FAC) of 21 ng/100 μL, a biotinylated goat anti-mouse IgG diluted 1:500, to a FAC of […], and an avidin-linked alkaline phosphatase. […] Binding of the complex to the immobilized fusion protein was quantified by measuring conversion of PNPP to para-nitrophenol (PNP) which was-measured spectrophotornetrically at 405 nm. […]

S100b (S100) = target: T2, S100b (S100) (Homo sapiens, UniProt P04271); assay: In vitro ligand binding ELISA, immobilized S100b; conditions: various dilutions of fusion protein; FIG. 7
T2 sequence (P04271 1-92): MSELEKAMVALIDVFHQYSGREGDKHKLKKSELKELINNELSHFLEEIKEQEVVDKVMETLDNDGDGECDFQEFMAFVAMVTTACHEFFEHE
Procedure: as §1

amphoterin (Ampho) = target: T3, amphoterin (Ampho) (Homo sapiens, UniProt P09429); assay: In vitro ligand binding ELISA, immobilized amphoterin; conditions: various dilutions of fusion protein; FIG. 7
T3 sequence (P09429 1-215): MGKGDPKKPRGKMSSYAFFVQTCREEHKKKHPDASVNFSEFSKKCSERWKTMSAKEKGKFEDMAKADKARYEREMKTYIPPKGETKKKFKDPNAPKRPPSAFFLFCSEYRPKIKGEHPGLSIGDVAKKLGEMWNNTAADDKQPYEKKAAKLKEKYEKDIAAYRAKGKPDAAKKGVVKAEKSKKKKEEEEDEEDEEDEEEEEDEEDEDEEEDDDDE
Procedure: as §1

APP transgenic mice = assay: Mouse model of AD (APP transgenic mice); format: in vivo; conditions: treated for 3 months, versus vehicle and human IgG1
Procedure: Experiments were performed to evaluate whether TTP-4000 could affect amyloid formation and cognitive dysfunction in a mouse model of AD. The experiments utilized transgenic mice expressing the human Swedish mutant amyloid precursor protein (APP) under the control of the PDGF-B chain promoter. Over time, these mice generate high levels of the RAGE ligand, amyloid beta (Aβ).
The APP mice (male) used in this experiment were designed by microinjection of the human APP gene (with the Swedish and London mutations) into mouse eggs under the control of the platelet-derived growth factor B (PDGF-B) chain gene promoter. The mice were generated on a C57BL/6 background and were developed by Molecular Therapeutics Inc. Animals were fed ad libituin and maintained by brother sister mating. The mice generated from this construct develop amyloid deposits starting at 6 months of age. Animals were aged for 6 months and then maintained for 90 days and sacrificed for amyloid quantification.
APP transgenic mice were administered vehicle or TTP4000 every other day [qod (i.p.)] for 90 days starting at 6 months of age. At the end of the experiment, animals were sacrificed and examined for AP plaque burden in the brain (i.e., plaque number). A 6-month control APP group was used to determine the baseline of amyloid deposits. In addition, at the end of the study, the animals were subjected to behavioral (Morris water maze) analysis. The investigators were blinded to the study compounds. Samples were given to the mice at 0.25 ml/mouse/every other day.
For histological examination, the animals were anesthetized with an intraperitoneal injection (IP) of sodium pentobarbital (50 mg/kg). The animals were transcardially perfused with 4° C., phosphate-buffered saline (PBS) followed by 4% paraformaldehyde. The brains were removed and placed in 4% paraformaldehyde over night. The brains were processed to paraffin and embedded. Ten serial 30-μm thick sections through the brain were obtained. Sections were subjected to primary antibody overnight at 4° C. (Aβ peptide antibody) in order to detect the amyloid deposits in the brain of the transgenic animals (Guo et al., J. Neurosci., 22:5900-5909 (2002)). Sections were washed in Tris-buffered saline (TBS) and secondary antibody was added and incubated for 1 hour at room temperature. After washing, the sections were incubated as instructed in the Vector ABC Elite kit (Vector Laboratories) and stained with […] (DAB). The reactions were stopped in water and cover-slipped after treatment with xylene. The amyloid area in each section was determined with a computer-assisted image analysis system, consisting of a Power Macintosh computer equipped with a Quick Capture frame grabber card, Hitachi CCD camera mounted on an Olympus microscope and camera stand. NIH Image Analysis Software, v. 1.55 was used. The images were captured and the total area of amyloid was determined over the ten sections. A single operator blinded to treatment status performed all measurements. Summing the amyloid volumes of the sections and dividing by the total number of sections was done to calculate the amyloid volume.
For quantitative analysis, an enzyme-linked immunosorbent assay (ELISA) was used to measure the levels of human total Aβ, Aβtotal and Aβ1-42 in the brains of APP transgenic mice (Biosource International., Camarillo, Calif.). Aβtotal and Aβ1-42 were extracted from mouse brains by guanidine hydrochloride and quantified as described by the manufacturer. […]

T1 sequence (P05067 672-711 limits assumed): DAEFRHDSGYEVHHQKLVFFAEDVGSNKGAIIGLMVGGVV

sRAGE: soluble RAGE: the RAGE protein that does not include the transmembrane region or the cytoplasmic tail [reference compound]
half-life in plasma [1]: only a few hours

human sRAGE: human soluble RAGE (e.g., SEQ ID NO: 4) [reference compound]
half-life in plasma [1]: about 2 hours
half-life [2]: less than 2 hours

B1: TTP-3000: three domain RAGE fusion protein (SEQ ID NO: 35): human RAGE amino acids 1-136 linked to CH2 and CH3 domains of human IgG (protein)
chain: MAAGTAVGAWVLVLSLWGAVVGAQNITARIGEPLVLKCKGAPKKPPQRLEWKLNTGRTEAWKVLSPQGGGPWDSVARVLPNGSLFLPAVGIQDEGIFRCQAMNRNGKETKSNYRVRVYQIPGKPEIVDSASELTAGPSVFLFPPKPKDTLMISRTPEVTCVVVDVSHEDPEVKFNWYVDGVEVHNAKTKPREEQYNSTYRVVSVLTVLHQDWLNGKEYKCKVSNKALPAPIEKTISKAKGQPREPQVYTLPPSRDELTKNQVSLTCLVKGFYPSDIAVEWESNGQPENNYKTTPPVLDSDGSFFLYSKLTVDKSRWQQGNVFSCSVMHEALHNHYTQKSLSLSPGK
binding to immobilized amyloid-beta (absorbance at 405 nm) (amyloid-beta (Abeta)): specifically interact
binding to immobilized S100b (absorbance at 405 nm) (S100b (S100)): specifically interact
binding to immobilized amphoterin (absorbance at 405 nm) (amphoterin (Ampho)): specifically interact

B2: rodent sRAGE: rodent soluble RAGE (protein, UniProt Q62151 23-340, looked up)
extracellular domain: GQNITARIGEPLVLSCKGAPKKPPQQLEWKLNTGRTEAWKVLSPQGGPWDSVARILPNGSLLLPATGIVDEGTFRCRATNRRGKEVKSNYRVRVYQIPGKPEIVDPASELTASVPNKVGTCVSEGSYPAGTLSWHLDGKLLIPDGKETLVKEETRRHPETGLFTLRSELTVIPTQGGTHPTFSCSFSLGLPRRRPLNTAPIQLRVREPGPPEGIQLLVEPEGGIVAPGGTVTLTCAISAQPPPQVHWIKDGAPLPLAPSPVLLLPEVGHEDEGTYSCVATHPSHGPQESPPVSIRVTETGDEGPAEGSVGESGLGTLA
modifications: extracellular domain
notes: rodent soluble RAGE
half-life [2]: approximately 20 hours

B3: mouse sRAGE: mouse soluble RAGE used as comparator in the AD mouse model (protein, UniProt Q62151 23-340, looked up)
extracellular domain: GQNITARIGEPLVLSCKGAPKKPPQQLEWKLNTGRTEAWKVLSPQGGPWDSVARILPNGSLLLPATGIVDEGTFRCRATNRRGKEVKSNYRVRVYQIPGKPEIVDPASELTASVPNKVGTCVSEGSYPAGTLSWHLDGKLLIPDGKETLVKEETRRHPETGLFTLRSELTVIPTQGGTHPTFSCSFSLGLPRRRPLNTAPIQLRVREPGPPEGIQLLVEPEGGIVAPGGTVTLTCAISAQPPPQVHWIKDGAPLPLAPSPVLLLPEVGHEDEGTYSCVATHPSHGPQESPPVSIRVTETGDEGPAEGSVGESGLGTLA
modifications: extracellular domain
notes: mouse soluble RAGE used as comparator in the AD mouse model
Aβ plaques in the brain (APP transgenic mice; FIG. 14A): fewer Aβ plaques
cognitive dysfunction (Morris water maze) (APP transgenic mice; FIG. 14B): less cognitive dysfunction
